{"source": "the DeepSol protein solubility set", "data": [{"assay": "soluble on expression in E. coli; label from the status in PepcDB or PDB records", "values": [{"sequence": "MAHHHHHHMELCLYNSKNGYLEALLRGFRSSFLTPEEYKKLTEVDTLEDLKSVLEDTDYGSFMMDEPSPIAVTTIAQKCKEKMAHEFNYIRAQAEEPLRTFLDYIAKEKMIDNVIILIHGTLNKKPAEELLSRVDPLGYFPQMKAITTMDVQNSHDDVLKVLLIETPIGTYFDKYISANASNEKNNVTTILNEMDIEILRNTLKKAWLEDFYDFIRELGGKTEEVMGHILKSVADFRVLSVTLNTINSSLSLELQKDRNDMFPCFGYLYPEGTDRIRKCWNNETVQAALENYPTYYNLYEECKQFYMKNENMQDSKIVDHKVKSLEDLLYVKLVKLCETAFDQHCHFGIFYAWVKLKEQEIRNIVWISDMILMNRKDCIDSIIPIFEPQI", "soluble on expression in E. coli": "not soluble"}, {"sequence": "MGSDKIHHHHHHMMQLLVTGATGFVGKTLCSALRRQSFPVKAIGRAGTIRADALGDQVASIDGQTDWSLILDGINAVIHLAARVHVMREQLADPLAAYRETNVEGTLNLARQAAKAGVKRFVFISSIKVNGEQTLPGKPFTAYDVPAPEDAYGISKFEAEQGLLALARETGMDVVVIRPPLVYGPGVKGNFASMMKLVKSGIPLPLGAIHNQRSLVAIDNLVNLIVTCIDHPAAANQVFLVSDGEDLSTSDLLRRLAKAAGVSSRLMPVSARWLEMGLRMCGKRLIAQRLLGSLQVDISKTRELLGWVPPISVDEGLKRCFSTKG", "soluble on expression in E. coli": "not soluble"}, {"sequence": "AIADFSENASGIPAEELAFPEIIELNVGGQVYITRYLTLTSVPDSLLWKMFSQKSSKDLARDTKGRFFIDRDGFLFRYILDYMRDQQLVLPEHFPEQGRLQREAEFFNLPELVQLLAPKISKQNTLGDDGCQTDQDESSPGANITCNLSSLGAYSSLGAATADGQRSGFITIGCRGSYTLGRDCQTDAKFRRVARIMVCGKTSLAKEVFGETLNESHDPDRQPDRYTSRYYLKFTSLEQAFDRLADAGFHMVACNSTGTCAFAHVQTDDKIWTSYNEYVFYRE", "soluble on expression in E. coli": "soluble"}, {"sequence": "MSSKSIHEKRAIAKYAASLIEDGDCIFVDAGTTTYELIDYLEGKDILVVSNGLSHIDTLIQKNIKCYVIGGNIKISTKAITGCDALMCLSKFRFDKCFIGANGVHHTYGLTTPDTEEAILKECAINNSRKAYVLADDSKFGEISTIKFSDINKCVIITNEKPKDNTYDKKTDIKVVDILEHHHHHH", "soluble on expression in E. coli": "soluble"}, {"sequence": "GSHMSETDLLMKMVRQPVKLYSVATLFHEFSEVITKLEHSVQKEPTSLLSEENWHKQFLKFAQALPAHGSASWLNLDDALQAVVGNSRSAFLHQLIAKLKSRHLQVLELNKIGSEPLDLSNLPAPFYVLLPESFAARITLLVQDKALPYVRVSMEYWHALEYKGELNDPAANKARKEAELAAATAEQ", "soluble on expression in E. coli": "soluble"}, {"sequence": "MGSDKIHHHHHHDNLQAPGSIKDEEKLRSWLAGYEAEAIKVLREVALSGWRYFNDASPSLKLALDEAENVLTMFVRSTSMQAKQFDMASVTDEKVMRQLGYVSFEGMSALAPSRFADYSQAQAALNRDSKDSTICDKDVPPPCALQKIDMDSIFRNEKDASRLQHLWVSYVTAIAKSKPSYNNIITISNEGAKLNGFANGGAMWRSAFDMSSKVHKAEFDLNKQIDKIYSTIQPFYQLLHAYMRRQLAGIYSNPVGLSKDGPIPAHLFGSLDGGDWSAHYEQTKPFEEESETPEAMLSAFNTQNYTTKKMFVTAYRYFKSAGFPHLPKSYWTSSIFARVWSKDMICHPAAALDMRAPNDFRVKACAQLGEPDFEQAHSLLVQTYYQYLYKDQSLLFREQASPVITDAIANAFAHLSTNPHYLYSQKLVPSEHLDIKDSVIINKLYKESLESFTKLPFTIAADNWRYELFDGTVPKNKLNDRWWEIRNKYEGVRSPQPYNTSNLDALIHNSVSQVHSPATRTLISYVLKFQILKALCQRELFWLSEGCILSEDTTEKLRETMKLGSSITWLKALEMISGKGELDAQPLLEYYEPLINWLRNTNEIDQVVVGWDGEGTP", "soluble on expression in E. coli": "not soluble"}, {"sequence": "MLETLSFTERDEFQRRNIAENIIKLLKPEADISPLVIDGAWGTGKSEFSIKLKNLIIEQETESKVVYVDAFKGDHAESPLLLITSAIASILPEEEKQNFIKRSLPAIRFGLKTVLKAGAGWFLRQEASEVAEEFQDAMKKASNAAIDGTIENILEDHMESEKNINSLKSCIEDISNKQKIVIIIDELDRCKPSFSTNIIETIKHIFDINNVFFILVTNTEQLKASINHIYGYSINSQKYLDKFIKYTITLPDTCLINGHNVCKTSVIYWDHLVGETTLLNKINSLVGSFICDLIQRTNLSLRETQTFSRNLNIFRLLNDNECKSNDPFINMIVVVAVFIHCFGDKEKLKQEITAESISYLADLLNIKEIPYSYERRSQIPEISIIFFGIIKDSITLNERFAPKSDEELKKFTNVYTDYEHLKFWSTTPRELMIKYINQMSFIQLEHHHHHH", "soluble on expression in E. coli": "not soluble"}]}]}
